Here are results for 1 protein from publication doi:10.1101/2022.04.09.487726 (bioRxiv, 2022).

The data set concerns the molecule itself. Kind of data set: cryo-EM structure.

B1: Redβ177-His6 (C-terminally truncated Redβ annealase of bacteriophage λ, residues 1-177) (domain or fragment, bacteriophage lambda (phage λ), UniProt P03698 1-177, looked up)
chain: MSTALATLAGKLAERVGMDSVDPQELITTLRQTAFKGDASDAQFIALLIVANQYGLNPWTKEIYAFPDKQNGIVPVVGVDGWSRIINENQQFDGMDFEQDNESCTCRIYRKDRNHPICVTEWMDECRREPFKTREGREITGPWQSHPKRMLRHKAMIQCARLAFGFAGIYDKDEAER
Regarding B1, the binding result is listed as “binds”.
